The record followed here is patent US20170355766A1 (Xencor, published 2017).

The assay has as its target T1, human FcγRIIb receptor protein (R&D Systems) (human, UniProt P31994 46-217).
T1 construct: Analyte injected over antibodies captured on a protein A/G chip (Biacore); also called CD32b
T1 sequence (looked up): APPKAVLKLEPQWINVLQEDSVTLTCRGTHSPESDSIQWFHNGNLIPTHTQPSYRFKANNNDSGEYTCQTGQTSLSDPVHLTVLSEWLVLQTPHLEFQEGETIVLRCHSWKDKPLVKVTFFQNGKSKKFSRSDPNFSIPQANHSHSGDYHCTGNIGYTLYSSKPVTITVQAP
Nature of the assay: SPR (Biacore). Here is the method:
Variants were screened for receptor affinity using Biacore™ technology, also referred to as Biacore herein, a surface plasmon resonance (SPR) based technology for studying biomolecular interactions in real time. SPR measurements were performed using a Biacore 3000 instrument (Biacore, Piscataway, N.J.). A protein A/G (Pierce Biotechnology) CM5 biosensor chip (Biacore) was generated using a standard primary amine coupling protocol. All measurements were performed using HBS-EP buffer (10 mM HEPES pH 7.4, 0.15 M NaCl, 3 mM EDTA, 0.005% vol/vol surfactant P20, Biacore). Antibodies at 20 nM or 50 nM in HBS-EP buffer were immobilized on the protein A/G surface and FcγRs were injected. After each cycle, the surface was regenerated by injecting glycine buffer (10 mM, pH 1.5). Data were processed by zeroing time and response before the injection of FcγR and by subtracting appropriate nonspecific signals (response of reference channel and injection of running buffer). Kinetic analyses were performed by global fitting of binding data with a 1:1 Langmuir binding model using BIAevaluation software (Biacore).
For orientation: SPR reads the build-up and loss of mass on a sensor chip optically.

B1: L235F/S239D/L328Y (antibody, human IgG1, kappa)
heavy: EVQLVESGGGLVKPGGSLKLSCAASGYTFTSYVMHWVRQAPGKGLEWIGYINPYNDGTKYNEKFQGRVTISSDKSISTAYMELSSLRSEDTAMYYCARGTYYYGTRVFDYWGQGTLVTVSSASTKGPSVFPLAPSSKSTSGGTAALGCLVKDYFPEPVTVSWNSGALTSGVHTFPAVLQSSGLYSLSSVVTVPSSSLGTQTYICNVNHKPSNTKVDKKVEPKSCDKTHTCPPCPAPELFGGPDVFLFPPKPKDTLMISRTPEVTCVVVDVSHEDPEVKFNWYVDGVEVHNAKTKPREEQYNSTYRVVSVLTVLHQDWLNGKEYKCKVSNKAYPAPIEKTISKAKGQPREPQVYTLPPSREEMTKNQVSLTCLVKGFYPSDIAVEWESNGQPENNYKTTPPVLDSDGSFFLYSKLTVDKSRWQQGNVFSCSVMHEALHNHYTQKSLSLSPGK
light: DIVMTQSPATLSLSPGERATLSCRSSKSLQNVNGNTYLYWFQQKPGQSPQLLIYRMSNLNSGVPDRFSGSGSGTEFTLTISSLEPEDFAVYYCMQHLEYPITFGAGTKLEIKRTVAAPSVFIFPPSDEQLKSGTASVVCLLNNFYPREAKVQWKVDNALQSGNSQESVTEQDSKDSTYSLSSTLTLSKADYEKHKVYACEVTHQGLSSPVTKSFNRGEC
notes: HuAM4G7 IgG1 Fc variant
B1: the “Fold FcγRIIb” value came out at 6.82 fold.

B2: L328Y/I332E (antibody, human IgG1, kappa)
heavy: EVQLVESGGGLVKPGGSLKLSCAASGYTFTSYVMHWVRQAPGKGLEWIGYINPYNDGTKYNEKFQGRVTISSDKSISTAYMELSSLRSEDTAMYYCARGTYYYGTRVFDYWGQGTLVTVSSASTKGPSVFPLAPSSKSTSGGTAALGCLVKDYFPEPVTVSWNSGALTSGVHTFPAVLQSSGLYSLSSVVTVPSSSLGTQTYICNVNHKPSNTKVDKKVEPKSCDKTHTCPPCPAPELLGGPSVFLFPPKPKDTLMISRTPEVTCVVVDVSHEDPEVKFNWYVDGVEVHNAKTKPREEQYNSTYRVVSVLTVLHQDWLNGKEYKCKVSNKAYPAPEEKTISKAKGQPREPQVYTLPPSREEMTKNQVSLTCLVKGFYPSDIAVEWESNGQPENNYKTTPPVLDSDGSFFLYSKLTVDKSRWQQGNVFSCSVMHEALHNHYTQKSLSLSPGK
light: DIVMTQSPATLSLSPGERATLSCRSSKSLQNVNGNTYLYWFQQKPGQSPQLLIYRMSNLNSGVPDRFSGSGSGTEFTLTISSLEPEDFAVYYCMQHLEYPITFGAGTKLEIKRTVAAPSVFIFPPSDEQLKSGTASVVCLLNNFYPREAKVQWKVDNALQSGNSQESVTEQDSKDSTYSLSSTLTLSKADYEKHKVYACEVTHQGLSSPVTKSFNRGEC
notes: HuAM4G7 IgG1 Fc variant
Take B2: the “Fold FcγRIIb” value turned out to be 2.08 fold.

B3: S239D/H268D (antibody, human IgG1, kappa)
heavy: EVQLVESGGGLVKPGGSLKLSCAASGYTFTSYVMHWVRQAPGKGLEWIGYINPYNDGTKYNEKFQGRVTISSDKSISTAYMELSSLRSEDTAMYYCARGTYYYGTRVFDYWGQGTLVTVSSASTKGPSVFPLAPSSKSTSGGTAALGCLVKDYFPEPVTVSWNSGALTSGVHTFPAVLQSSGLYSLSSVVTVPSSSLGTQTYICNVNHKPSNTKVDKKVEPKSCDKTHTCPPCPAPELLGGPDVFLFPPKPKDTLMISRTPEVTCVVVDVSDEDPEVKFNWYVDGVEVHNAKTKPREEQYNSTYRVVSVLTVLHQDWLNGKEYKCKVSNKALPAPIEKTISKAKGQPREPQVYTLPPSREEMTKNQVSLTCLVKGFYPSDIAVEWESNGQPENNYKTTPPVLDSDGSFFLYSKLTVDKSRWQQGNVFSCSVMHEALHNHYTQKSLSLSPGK
light: DIVMTQSPATLSLSPGERATLSCRSSKSLQNVNGNTYLYWFQQKPGQSPQLLIYRMSNLNSGVPDRFSGSGSGTEFTLTISSLEPEDFAVYYCMQHLEYPITFGAGTKLEIKRTVAAPSVFIFPPSDEQLKSGTASVVCLLNNFYPREAKVQWKVDNALQSGNSQESVTEQDSKDSTYSLSSTLTLSKADYEKHKVYACEVTHQGLSSPVTKSFNRGEC
notes: HuAM4G7 IgG1 Fc variant
As for B3, the “Fold FcγRIIb” value turned out to be 14.4 fold.

B4: S239D/H268D/L328F (antibody, human IgG1, kappa)
heavy: EVQLVESGGGLVKPGGSLKLSCAASGYTFTSYVMHWVRQAPGKGLEWIGYINPYNDGTKYNEKFQGRVTISSDKSISTAYMELSSLRSEDTAMYYCARGTYYYGTRVFDYWGQGTLVTVSSASTKGPSVFPLAPSSKSTSGGTAALGCLVKDYFPEPVTVSWNSGALTSGVHTFPAVLQSSGLYSLSSVVTVPSSSLGTQTYICNVNHKPSNTKVDKKVEPKSCDKTHTCPPCPAPELLGGPDVFLFPPKPKDTLMISRTPEVTCVVVDVSDEDPEVKFNWYVDGVEVHNAKTKPREEQYNSTYRVVSVLTVLHQDWLNGKEYKCKVSNKAFPAPIEKTISKAKGQPREPQVYTLPPSREEMTKNQVSLTCLVKGFYPSDIAVEWESNGQPENNYKTTPPVLDSDGSFFLYSKLTVDKSRWQQGNVFSCSVMHEALHNHYTQKSLSLSPGK
light: DIVMTQSPATLSLSPGERATLSCRSSKSLQNVNGNTYLYWFQQKPGQSPQLLIYRMSNLNSGVPDRFSGSGSGTEFTLTISSLEPEDFAVYYCMQHLEYPITFGAGTKLEIKRTVAAPSVFIFPPSDEQLKSGTASVVCLLNNFYPREAKVQWKVDNALQSGNSQESVTEQDSKDSTYSLSSTLTLSKADYEKHKVYACEVTHQGLSSPVTKSFNRGEC
notes: HuAM4G7 IgG1 Fc variant
As to B4, the “Fold FcγRIIb” value was found to be 8.79 fold.

B5: S239D/A327D/L328Y (antibody, human IgG1, kappa)
heavy: EVQLVESGGGLVKPGGSLKLSCAASGYTFTSYVMHWVRQAPGKGLEWIGYINPYNDGTKYNEKFQGRVTISSDKSISTAYMELSSLRSEDTAMYYCARGTYYYGTRVFDYWGQGTLVTVSSASTKGPSVFPLAPSSKSTSGGTAALGCLVKDYFPEPVTVSWNSGALTSGVHTFPAVLQSSGLYSLSSVVTVPSSSLGTQTYICNVNHKPSNTKVDKKVEPKSCDKTHTCPPCPAPELLGGPDVFLFPPKPKDTLMISRTPEVTCVVVDVSHEDPEVKFNWYVDGVEVHNAKTKPREEQYNSTYRVVSVLTVLHQDWLNGKEYKCKVSNKDYPAPIEKTISKAKGQPREPQVYTLPPSREEMTKNQVSLTCLVKGFYPSDIAVEWESNGQPENNYKTTPPVLDSDGSFFLYSKLTVDKSRWQQGNVFSCSVMHEALHNHYTQKSLSLSPGK
light: DIVMTQSPATLSLSPGERATLSCRSSKSLQNVNGNTYLYWFQQKPGQSPQLLIYRMSNLNSGVPDRFSGSGSGTEFTLTISSLEPEDFAVYYCMQHLEYPITFGAGTKLEIKRTVAAPSVFIFPPSDEQLKSGTASVVCLLNNFYPREAKVQWKVDNALQSGNSQESVTEQDSKDSTYSLSSTLTLSKADYEKHKVYACEVTHQGLSSPVTKSFNRGEC
notes: HuAM4G7 IgG1 Fc variant
As to B5, the “Fold FcγRIIb” value came to 11.9 fold.

B6: S239D/H268D/L328F/I332E (antibody, human IgG1, kappa)
heavy: EVQLVESGGGLVKPGGSLKLSCAASGYTFTSYVMHWVRQAPGKGLEWIGYINPYNDGTKYNEKFQGRVTISSDKSISTAYMELSSLRSEDTAMYYCARGTYYYGTRVFDYWGQGTLVTVSSASTKGPSVFPLAPSSKSTSGGTAALGCLVKDYFPEPVTVSWNSGALTSGVHTFPAVLQSSGLYSLSSVVTVPSSSLGTQTYICNVNHKPSNTKVDKKVEPKSCDKTHTCPPCPAPELLGGPDVFLFPPKPKDTLMISRTPEVTCVVVDVSDEDPEVKFNWYVDGVEVHNAKTKPREEQYNSTYRVVSVLTVLHQDWLNGKEYKCKVSNKAFPAPEEKTISKAKGQPREPQVYTLPPSREEMTKNQVSLTCLVKGFYPSDIAVEWESNGQPENNYKTTPPVLDSDGSFFLYSKLTVDKSRWQQGNVFSCSVMHEALHNHYTQKSLSLSPGK
light: DIVMTQSPATLSLSPGERATLSCRSSKSLQNVNGNTYLYWFQQKPGQSPQLLIYRMSNLNSGVPDRFSGSGSGTEFTLTISSLEPEDFAVYYCMQHLEYPITFGAGTKLEIKRTVAAPSVFIFPPSDEQLKSGTASVVCLLNNFYPREAKVQWKVDNALQSGNSQESVTEQDSKDSTYSLSSTLTLSKADYEKHKVYACEVTHQGLSSPVTKSFNRGEC
notes: HuAM4G7 IgG1 Fc variant
For the molecule B6, the “Fold FcγRIIb” value is 53.2 fold.

B7: L235Y/S267D (antibody, human IgG1, kappa)
heavy: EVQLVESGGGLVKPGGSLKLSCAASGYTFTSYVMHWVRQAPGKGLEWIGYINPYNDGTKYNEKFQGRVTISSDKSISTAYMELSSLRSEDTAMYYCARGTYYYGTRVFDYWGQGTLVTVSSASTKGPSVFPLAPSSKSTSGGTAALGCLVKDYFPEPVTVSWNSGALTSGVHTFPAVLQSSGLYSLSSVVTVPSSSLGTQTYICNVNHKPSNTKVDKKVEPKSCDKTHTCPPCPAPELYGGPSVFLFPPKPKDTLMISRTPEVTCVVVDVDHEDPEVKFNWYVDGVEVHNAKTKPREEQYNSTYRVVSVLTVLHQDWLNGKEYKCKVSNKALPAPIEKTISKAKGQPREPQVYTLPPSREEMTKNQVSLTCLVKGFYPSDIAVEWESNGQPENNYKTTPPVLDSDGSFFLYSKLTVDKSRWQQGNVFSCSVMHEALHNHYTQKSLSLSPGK
light: DIVMTQSPATLSLSPGERATLSCRSSKSLQNVNGNTYLYWFQQKPGQSPQLLIYRMSNLNSGVPDRFSGSGSGTEFTLTISSLEPEDFAVYYCMQHLEYPITFGAGTKLEIKRTVAAPSVFIFPPSDEQLKSGTASVVCLLNNFYPREAKVQWKVDNALQSGNSQESVTEQDSKDSTYSLSSTLTLSKADYEKHKVYACEVTHQGLSSPVTKSFNRGEC
notes: HuAM4G7 IgG1 Fc variant
As for B7, the “Fold FcγRIIb” value worked out at 15.9 fold.

B8: P331S (antibody, human IgG1, kappa)
heavy: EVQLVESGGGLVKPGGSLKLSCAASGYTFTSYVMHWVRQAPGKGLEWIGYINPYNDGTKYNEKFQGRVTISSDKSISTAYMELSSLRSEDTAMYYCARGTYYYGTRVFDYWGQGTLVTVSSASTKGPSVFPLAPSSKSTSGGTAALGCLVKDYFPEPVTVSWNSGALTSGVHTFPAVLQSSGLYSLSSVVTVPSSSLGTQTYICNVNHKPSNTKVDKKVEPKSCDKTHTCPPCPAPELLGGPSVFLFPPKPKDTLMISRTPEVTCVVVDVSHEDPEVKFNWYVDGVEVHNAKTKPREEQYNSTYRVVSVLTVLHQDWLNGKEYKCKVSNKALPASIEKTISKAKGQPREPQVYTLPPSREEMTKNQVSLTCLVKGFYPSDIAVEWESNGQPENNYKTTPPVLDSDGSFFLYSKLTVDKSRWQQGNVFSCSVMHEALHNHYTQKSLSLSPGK
light: DIVMTQSPATLSLSPGERATLSCRSSKSLQNVNGNTYLYWFQQKPGQSPQLLIYRMSNLNSGVPDRFSGSGSGTEFTLTISSLEPEDFAVYYCMQHLEYPITFGAGTKLEIKRTVAAPSVFIFPPSDEQLKSGTASVVCLLNNFYPREAKVQWKVDNALQSGNSQESVTEQDSKDSTYSLSSTLTLSKADYEKHKVYACEVTHQGLSSPVTKSFNRGEC
notes: HuAM4G7 IgG1 Fc variant
Turning to B8, the “Fold FcγRIIb” value stood at 0.0372 fold.

B9: S239D/H268D/L328W (antibody, human IgG1, kappa)
heavy: EVQLVESGGGLVKPGGSLKLSCAASGYTFTSYVMHWVRQAPGKGLEWIGYINPYNDGTKYNEKFQGRVTISSDKSISTAYMELSSLRSEDTAMYYCARGTYYYGTRVFDYWGQGTLVTVSSASTKGPSVFPLAPSSKSTSGGTAALGCLVKDYFPEPVTVSWNSGALTSGVHTFPAVLQSSGLYSLSSVVTVPSSSLGTQTYICNVNHKPSNTKVDKKVEPKSCDKTHTCPPCPAPELLGGPDVFLFPPKPKDTLMISRTPEVTCVVVDVSDEDPEVKFNWYVDGVEVHNAKTKPREEQYNSTYRVVSVLTVLHQDWLNGKEYKCKVSNKAWPAPIEKTISKAKGQPREPQVYTLPPSREEMTKNQVSLTCLVKGFYPSDIAVEWESNGQPENNYKTTPPVLDSDGSFFLYSKLTVDKSRWQQGNVFSCSVMHEALHNHYTQKSLSLSPGK
light: DIVMTQSPATLSLSPGERATLSCRSSKSLQNVNGNTYLYWFQQKPGQSPQLLIYRMSNLNSGVPDRFSGSGSGTEFTLTISSLEPEDFAVYYCMQHLEYPITFGAGTKLEIKRTVAAPSVFIFPPSDEQLKSGTASVVCLLNNFYPREAKVQWKVDNALQSGNSQESVTEQDSKDSTYSLSSTLTLSKADYEKHKVYACEVTHQGLSSPVTKSFNRGEC
notes: HuAM4G7 IgG1 Fc variant
For the molecule B9, the “Fold FcγRIIb” value was determined as 51.1 fold.

B10: L235W (antibody, human IgG1, kappa)
heavy: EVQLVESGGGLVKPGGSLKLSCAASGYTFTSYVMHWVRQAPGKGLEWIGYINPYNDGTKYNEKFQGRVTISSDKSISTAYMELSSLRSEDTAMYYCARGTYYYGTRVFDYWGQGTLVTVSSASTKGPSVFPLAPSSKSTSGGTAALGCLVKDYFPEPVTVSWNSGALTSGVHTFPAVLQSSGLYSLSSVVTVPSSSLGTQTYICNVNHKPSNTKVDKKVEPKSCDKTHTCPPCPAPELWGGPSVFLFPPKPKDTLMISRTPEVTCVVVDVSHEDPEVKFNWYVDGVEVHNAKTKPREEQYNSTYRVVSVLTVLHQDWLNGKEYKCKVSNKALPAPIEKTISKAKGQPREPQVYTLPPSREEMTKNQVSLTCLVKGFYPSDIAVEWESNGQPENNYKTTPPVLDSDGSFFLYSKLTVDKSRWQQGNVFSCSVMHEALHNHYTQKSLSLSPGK
light: DIVMTQSPATLSLSPGERATLSCRSSKSLQNVNGNTYLYWFQQKPGQSPQLLIYRMSNLNSGVPDRFSGSGSGTEFTLTISSLEPEDFAVYYCMQHLEYPITFGAGTKLEIKRTVAAPSVFIFPPSDEQLKSGTASVVCLLNNFYPREAKVQWKVDNALQSGNSQESVTEQDSKDSTYSLSSTLTLSKADYEKHKVYACEVTHQGLSSPVTKSFNRGEC
notes: HuAM4G7 IgG1 Fc variant
Consider B10, for which the binding result was “no binding”.

B11: L328E (antibody, human IgG1, kappa)
heavy: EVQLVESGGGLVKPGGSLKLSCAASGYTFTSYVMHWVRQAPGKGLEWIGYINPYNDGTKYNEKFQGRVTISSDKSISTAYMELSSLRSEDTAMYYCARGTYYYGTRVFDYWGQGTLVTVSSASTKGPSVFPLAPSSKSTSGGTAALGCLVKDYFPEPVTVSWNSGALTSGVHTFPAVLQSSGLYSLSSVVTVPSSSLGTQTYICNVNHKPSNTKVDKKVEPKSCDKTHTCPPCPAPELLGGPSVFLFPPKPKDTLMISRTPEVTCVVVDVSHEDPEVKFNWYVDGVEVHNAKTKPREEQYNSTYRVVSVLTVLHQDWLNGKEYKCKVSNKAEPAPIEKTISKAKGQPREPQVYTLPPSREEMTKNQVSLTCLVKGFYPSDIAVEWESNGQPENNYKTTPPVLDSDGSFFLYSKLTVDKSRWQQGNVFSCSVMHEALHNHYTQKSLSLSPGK
light: DIVMTQSPATLSLSPGERATLSCRSSKSLQNVNGNTYLYWFQQKPGQSPQLLIYRMSNLNSGVPDRFSGSGSGTEFTLTISSLEPEDFAVYYCMQHLEYPITFGAGTKLEIKRTVAAPSVFIFPPSDEQLKSGTASVVCLLNNFYPREAKVQWKVDNALQSGNSQESVTEQDSKDSTYSLSSTLTLSKADYEKHKVYACEVTHQGLSSPVTKSFNRGEC
notes: HuAM4G7 IgG1 Fc variant
As to B11, the binding result was “no binding”.
